Experimental data taken from paper doi:10.1101/346296.

Columns and labels:
[1] = biological target: WT nucleosomal array (recombinant Xenopus laevis histone octamers on 601-177-12 or 601-177-36 DNA) (Xenopus laevis); assay: AUC
[2] = biological target: WT nucleosomal array with Sir2/4 complex added beforehand (S. cerevisiae | Xenopus laevis) (UniProt P06700); assay: AUC

Row | stoichiometry N (Sir2/4 per nucleosome) [1] | stoichiometry N (complexes bound per array) [1] | stoichiometry N (molecules of Sir2/4 per array) [1] | stoichiometry N (molecules of Sir3 per array) [1] | stoichiometry N (molecules of Sir3 per array) [2] | Substance
1 | 1 | 4 | 11 | – | – | TAP-tagged Sir2/4 complex (from UniProt P06700;P11978)
2 | – | – | – | 22 | 22 | FLAG-tagged Sir3 protein (from UniProt P06701 1-978) (natural protein)
